From IntAct's records for PubMed 11375976

Target: TERF1, P54274-2
Sequence (P54274 other isoform, or with tags, fused parts or gaps): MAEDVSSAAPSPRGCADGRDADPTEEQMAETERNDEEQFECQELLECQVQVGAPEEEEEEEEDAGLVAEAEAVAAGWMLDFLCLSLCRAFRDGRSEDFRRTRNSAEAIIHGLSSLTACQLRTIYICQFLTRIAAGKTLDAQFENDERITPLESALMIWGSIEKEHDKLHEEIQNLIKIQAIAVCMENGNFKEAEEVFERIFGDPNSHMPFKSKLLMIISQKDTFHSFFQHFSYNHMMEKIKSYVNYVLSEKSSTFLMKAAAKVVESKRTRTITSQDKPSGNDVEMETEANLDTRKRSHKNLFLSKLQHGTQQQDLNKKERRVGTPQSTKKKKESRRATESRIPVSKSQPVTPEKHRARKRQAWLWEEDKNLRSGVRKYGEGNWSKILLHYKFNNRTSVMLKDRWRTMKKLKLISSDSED

effect of a mutation on the interaction: disrupting interaction
Substance: Serine-protein kinase ATM (Homo sapiens), Q13315 D2870A;N2875K
